According to patent US20260015399A1 (Boehringer Ingelheim, published 2026):
*1 amine or outer side, *2 acyl side, *3 side chain or, on linkers, in order; H or OH if unused. Side-chain parts run from the residue outwards. The star is where a group is joined. C18 diacid = O=C(O)CCCCCCCCCCCCCCCCC(=O)*; γGlu = O=C(O)[C@H](CCC(=O)[*:2])N[*:1]; Isovaleryl = CC(C)CC(=O)*; Ahx = NCCCCCC(=O)O

T1: human NPY2 receptor (human, UniProt P49146 1-381)
T1 construct: whole, on cells; also called hNPY2-R; hNPY2R
T1 sequence (looked up): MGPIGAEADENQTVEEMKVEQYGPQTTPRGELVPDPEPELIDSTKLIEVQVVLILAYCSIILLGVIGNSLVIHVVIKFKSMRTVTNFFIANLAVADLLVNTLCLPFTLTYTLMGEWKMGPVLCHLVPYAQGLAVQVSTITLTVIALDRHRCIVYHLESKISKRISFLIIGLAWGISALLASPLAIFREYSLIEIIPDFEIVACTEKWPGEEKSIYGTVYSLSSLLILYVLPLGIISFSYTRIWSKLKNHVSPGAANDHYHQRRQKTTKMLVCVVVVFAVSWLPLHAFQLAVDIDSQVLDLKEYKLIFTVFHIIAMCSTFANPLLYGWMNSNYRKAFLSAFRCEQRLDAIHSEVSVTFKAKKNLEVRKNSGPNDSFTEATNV

B1: Compound 157 (peptide)
peptide: Isovaleryl-APAK([Ahx-γGlu-C18 diacid])PEEAASPEELQRYYVALRHYYNWLTRQRY-NH2
SMILES: CC(C)CC(=O)N[C@@H](C)C(=O)N1CCC[C@H]1C(=O)N[C@@H](C)C(=O)N[C@@H](CCCCNC(=O)CCCCCNC(=O)CC[C@H](NC(=O)CCCCCCCCCCCCCCCCC(=O)O)C(=O)O)C(=O)N1CCC[C@H]1C(=O)N[C@@H](CCC(=O)O)C(=O)N[C@@H](CCC(=O)O)C(=O)N[C@@H](C)C(=O)N[C@@H](C)C(=O)N[C@@H](CO)C(=O)N1CCC[C@H]1C(=O)N[C@@H](CCC(=O)O)C(=O)N[C@@H](CCC(=O)O)C(=O)N[C@@H](CC(C)C)C(=O)N[C@@H](CCC(N)=O)C(=O)N[C@@H](CCCNC(=N)N)C(=O)N[C@@H](Cc1ccc(O)cc1)C(=O)N[C@@H](Cc1ccc(O)cc1)C(=O)N[C@H](C(=O)N[C@@H](C)C(=O)N[C@@H](CC(C)C)C(=O)N[C@@H](CCCNC(=N)N)C(=O)N[C@@H](Cc1c[nH]cn1)C(=O)N[C@@H](Cc1ccc(O)cc1)C(=O)N[C@@H](Cc1ccc(O)cc1)C(=O)N[C@@H](CC(N)=O)C(=O)N[C@@H](Cc1c[nH]c2ccccc12)C(=O)N[C@@H](CC(C)C)C(=O)N[C@H](C(=O)N[C@@H](CCCNC(=N)N)C(=O)N[C@@H](CCC(N)=O)C(=O)N[C@@H](CCCNC(=N)N)C(=O)N[C@@H](Cc1ccc(O)cc1)C(N)=O)[C@@H](C)O)C(C)C
B2: Compound 161 (peptide)
peptide: Isovaleryl-APAK([Ahx-γGlu-C18 diacid])PEEAAEPEELQRYYVALRHYYNWLTRQRY-NH2
SMILES: CC(C)CC(=O)N[C@@H](C)C(=O)N1CCC[C@H]1C(=O)N[C@@H](C)C(=O)N[C@@H](CCCCNC(=O)CCCCCNC(=O)CC[C@H](NC(=O)CCCCCCCCCCCCCCCCC(=O)O)C(=O)O)C(=O)N1CCC[C@H]1C(=O)N[C@@H](CCC(=O)O)C(=O)N[C@@H](CCC(=O)O)C(=O)N[C@@H](C)C(=O)N[C@@H](C)C(=O)N[C@@H](CCC(=O)O)C(=O)N1CCC[C@H]1C(=O)N[C@@H](CCC(=O)O)C(=O)N[C@@H](CCC(=O)O)C(=O)N[C@@H](CC(C)C)C(=O)N[C@@H](CCC(N)=O)C(=O)N[C@@H](CCCNC(=N)N)C(=O)N[C@@H](Cc1ccc(O)cc1)C(=O)N[C@@H](Cc1ccc(O)cc1)C(=O)N[C@H](C(=O)N[C@@H](C)C(=O)N[C@@H](CC(C)C)C(=O)N[C@@H](CCCNC(=N)N)C(=O)N[C@@H](Cc1c[nH]cn1)C(=O)N[C@@H](Cc1ccc(O)cc1)C(=O)N[C@@H](Cc1ccc(O)cc1)C(=O)N[C@@H](CC(N)=O)C(=O)N[C@@H](Cc1c[nH]c2ccccc12)C(=O)N[C@@H](CC(C)C)C(=O)N[C@H](C(=O)N[C@@H](CCCNC(=N)N)C(=O)N[C@@H](CCC(N)=O)C(=O)N[C@@H](CCCNC(=N)N)C(=O)N[C@@H](Cc1ccc(O)cc1)C(N)=O)[C@@H](C)O)C(C)C
B3: Compound 162 (peptide)
peptide: Isovaleryl-APEK([Ahx-γGlu-C18 diacid])PEEDATPEEEQRYYVSLRHYYNWLTRQRY-NH2
SMILES: CC(C)CC(=O)N[C@@H](C)C(=O)N1CCC[C@H]1C(=O)N[C@@H](CCC(=O)O)C(=O)N[C@@H](CCCCNC(=O)CCCCCNC(=O)CC[C@H](NC(=O)CCCCCCCCCCCCCCCCC(=O)O)C(=O)O)C(=O)N1CCC[C@H]1C(=O)N[C@@H](CCC(=O)O)C(=O)N[C@@H](CCC(=O)O)C(=O)N[C@@H](CC(=O)O)C(=O)N[C@@H](C)C(=O)N[C@H](C(=O)N1CCC[C@H]1C(=O)N[C@@H](CCC(=O)O)C(=O)N[C@@H](CCC(=O)O)C(=O)N[C@@H](CCC(=O)O)C(=O)N[C@@H](CCC(N)=O)C(=O)N[C@@H](CCCNC(=N)N)C(=O)N[C@@H](Cc1ccc(O)cc1)C(=O)N[C@@H](Cc1ccc(O)cc1)C(=O)N[C@H](C(=O)N[C@@H](CO)C(=O)N[C@@H](CC(C)C)C(=O)N[C@@H](CCCNC(=N)N)C(=O)N[C@@H](Cc1c[nH]cn1)C(=O)N[C@@H](Cc1ccc(O)cc1)C(=O)N[C@@H](Cc1ccc(O)cc1)C(=O)N[C@@H](CC(N)=O)C(=O)N[C@@H](Cc1c[nH]c2ccccc12)C(=O)N[C@@H](CC(C)C)C(=O)N[C@H](C(=O)N[C@@H](CCCNC(=N)N)C(=O)N[C@@H](CCC(N)=O)C(=O)N[C@@H](CCCNC(=N)N)C(=O)N[C@@H](Cc1ccc(O)cc1)C(N)=O)[C@@H](C)O)C(C)C)[C@@H](C)O
B4: Compound 164 (peptide)
peptide: Isovaleryl-APEK([Ahx-γGlu-C18 diacid])PEEDATPEEIQRYYQSLRHYYNWLTRQRY-NH2
SMILES: CC[C@H](C)[C@H](NC(=O)[C@H](CCC(=O)O)NC(=O)[C@H](CCC(=O)O)NC(=O)[C@@H]1CCCN1C(=O)[C@@H](NC(=O)[C@H](C)NC(=O)[C@H](CC(=O)O)NC(=O)[C@H](CCC(=O)O)NC(=O)[C@H](CCC(=O)O)NC(=O)[C@@H]1CCCN1C(=O)[C@H](CCCCNC(=O)CCCCCNC(=O)CC[C@H](NC(=O)CCCCCCCCCCCCCCCCC(=O)O)C(=O)O)NC(=O)[C@H](CCC(=O)O)NC(=O)[C@@H]1CCCN1C(=O)[C@H](C)NC(=O)CC(C)C)[C@@H](C)O)C(=O)N[C@@H](CCC(N)=O)C(=O)N[C@@H](CCCNC(=N)N)C(=O)N[C@@H](Cc1ccc(O)cc1)C(=O)N[C@@H](Cc1ccc(O)cc1)C(=O)N[C@@H](CCC(N)=O)C(=O)N[C@@H](CO)C(=O)N[C@@H](CC(C)C)C(=O)N[C@@H](CCCNC(=N)N)C(=O)N[C@@H](Cc1c[nH]cn1)C(=O)N[C@@H](Cc1ccc(O)cc1)C(=O)N[C@@H](Cc1ccc(O)cc1)C(=O)N[C@@H](CC(N)=O)C(=O)N[C@@H](Cc1c[nH]c2ccccc12)C(=O)N[C@@H](CC(C)C)C(=O)N[C@H](C(=O)N[C@@H](CCCNC(=N)N)C(=O)N[C@@H](CCC(N)=O)C(=O)N[C@@H](CCCNC(=N)N)C(=O)N[C@@H](Cc1ccc(O)cc1)C(N)=O)[C@@H](C)O
B5: Compound 158 (peptide)
peptide: Isovaleryl-APEK([Ahx-γGlu-C18 diacid])PPEAASPEEIQRYYVALRHYYNWLTRQRY-NH2
SMILES: CC[C@H](C)[C@H](NC(=O)[C@H](CCC(=O)O)NC(=O)[C@H](CCC(=O)O)NC(=O)[C@@H]1CCCN1C(=O)[C@H](CO)NC(=O)[C@H](C)NC(=O)[C@H](C)NC(=O)[C@H](CCC(=O)O)NC(=O)[C@@H]1CCCN1C(=O)[C@@H]1CCCN1C(=O)[C@H](CCCCNC(=O)CCCCCNC(=O)CC[C@H](NC(=O)CCCCCCCCCCCCCCCCC(=O)O)C(=O)O)NC(=O)[C@H](CCC(=O)O)NC(=O)[C@@H]1CCCN1C(=O)[C@H](C)NC(=O)CC(C)C)C(=O)N[C@@H](CCC(N)=O)C(=O)N[C@@H](CCCNC(=N)N)C(=O)N[C@@H](Cc1ccc(O)cc1)C(=O)N[C@@H](Cc1ccc(O)cc1)C(=O)N[C@H](C(=O)N[C@@H](C)C(=O)N[C@@H](CC(C)C)C(=O)N[C@@H](CCCNC(=N)N)C(=O)N[C@@H](Cc1c[nH]cn1)C(=O)N[C@@H](Cc1ccc(O)cc1)C(=O)N[C@@H](Cc1ccc(O)cc1)C(=O)N[C@@H](CC(N)=O)C(=O)N[C@@H](Cc1c[nH]c2ccccc12)C(=O)N[C@@H](CC(C)C)C(=O)N[C@H](C(=O)N[C@@H](CCCNC(=N)N)C(=O)N[C@@H](CCC(N)=O)C(=O)N[C@@H](CCCNC(=N)N)C(=O)N[C@@H](Cc1ccc(O)cc1)C(N)=O)[C@@H](C)O)C(C)C
B6: Compound 159 (peptide)
peptide: Isovaleryl-APEK([Ahx-γGlu-C18 diacid])PEADAEPEELQRYYISLRHYYNWLTRQRY-NH2
SMILES: CC[C@H](C)[C@H](NC(=O)[C@H](Cc1ccc(O)cc1)NC(=O)[C@H](Cc1ccc(O)cc1)NC(=O)[C@H](CCCNC(=N)N)NC(=O)[C@H](CCC(N)=O)NC(=O)[C@H](CC(C)C)NC(=O)[C@H](CCC(=O)O)NC(=O)[C@H](CCC(=O)O)NC(=O)[C@@H]1CCCN1C(=O)[C@H](CCC(=O)O)NC(=O)[C@H](C)NC(=O)[C@H](CC(=O)O)NC(=O)[C@H](C)NC(=O)[C@H](CCC(=O)O)NC(=O)[C@@H]1CCCN1C(=O)[C@H](CCCCNC(=O)CCCCCNC(=O)CC[C@H](NC(=O)CCCCCCCCCCCCCCCCC(=O)O)C(=O)O)NC(=O)[C@H](CCC(=O)O)NC(=O)[C@@H]1CCCN1C(=O)[C@H](C)NC(=O)CC(C)C)C(=O)N[C@@H](CO)C(=O)N[C@@H](CC(C)C)C(=O)N[C@@H](CCCNC(=N)N)C(=O)N[C@@H](Cc1c[nH]cn1)C(=O)N[C@@H](Cc1ccc(O)cc1)C(=O)N[C@@H](Cc1ccc(O)cc1)C(=O)N[C@@H](CC(N)=O)C(=O)N[C@@H](Cc1c[nH]c2ccccc12)C(=O)N[C@@H](CC(C)C)C(=O)N[C@H](C(=O)N[C@@H](CCCNC(=N)N)C(=O)N[C@@H](CCC(N)=O)C(=O)N[C@@H](CCCNC(=N)N)C(=O)N[C@@H](Cc1ccc(O)cc1)C(N)=O)[C@@H](C)O

What follows are binders tested against T1, human NPY2 receptor (assay: RLB: displacement of 125I-PYY(1-36) from hNPY2R membranes).

Row | Ki | Binder
1 | 1.68 nM | B1
2 | 4 nM | B2
3 | 14.9 nM | B3
4 | 2.8 nM | B4
5 | 0.58 nM | B5
6 | 2.75 nM | B6
